From PMC10786891, “Massively parallel profiling of RNA-targeting CRISPR-Cas13d”
Where a chain is given by its changes, count along the chain named. Names and notes keep the numbering of the source.

T1: EsCas13d, nuclease-dead (Eubacterium siraeum, UniProt B0MS50, R295A;H300A;R849A;H854A)
T1 sequence: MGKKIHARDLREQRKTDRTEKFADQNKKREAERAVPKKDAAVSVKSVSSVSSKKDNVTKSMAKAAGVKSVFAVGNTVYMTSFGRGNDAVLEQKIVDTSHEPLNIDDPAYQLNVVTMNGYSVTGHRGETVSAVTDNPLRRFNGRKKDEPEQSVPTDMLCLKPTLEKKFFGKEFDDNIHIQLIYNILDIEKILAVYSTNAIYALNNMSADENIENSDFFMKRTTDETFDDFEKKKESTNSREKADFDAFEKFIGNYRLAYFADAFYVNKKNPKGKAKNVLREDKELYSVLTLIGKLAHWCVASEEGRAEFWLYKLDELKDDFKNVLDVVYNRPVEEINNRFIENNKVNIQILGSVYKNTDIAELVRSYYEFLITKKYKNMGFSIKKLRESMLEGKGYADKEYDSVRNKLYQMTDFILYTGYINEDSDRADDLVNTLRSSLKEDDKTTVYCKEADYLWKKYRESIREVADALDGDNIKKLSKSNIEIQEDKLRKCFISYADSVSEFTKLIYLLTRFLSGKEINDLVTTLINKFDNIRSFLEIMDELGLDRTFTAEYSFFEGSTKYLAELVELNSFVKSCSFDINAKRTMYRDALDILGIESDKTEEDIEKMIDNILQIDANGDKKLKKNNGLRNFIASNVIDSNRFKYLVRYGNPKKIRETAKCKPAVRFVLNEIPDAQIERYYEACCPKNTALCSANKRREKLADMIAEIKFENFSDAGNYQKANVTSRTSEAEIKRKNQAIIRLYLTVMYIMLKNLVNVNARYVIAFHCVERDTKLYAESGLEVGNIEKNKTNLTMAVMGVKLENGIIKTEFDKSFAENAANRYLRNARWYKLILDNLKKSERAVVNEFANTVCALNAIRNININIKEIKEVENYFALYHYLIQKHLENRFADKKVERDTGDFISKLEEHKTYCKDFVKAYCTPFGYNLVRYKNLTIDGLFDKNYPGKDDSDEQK

B1: target 1 U3C,G12A (mixed)
RNA 1: CACCCGUGCAAAAAUGCAGGGGUCUAAAACUGAGCGGAUAACCUCUCUAUGG
RNA 2: GGGAAUGGAUCCACAUCUACGAAUUCGUACCAUAGAGAGAUUAUCCGCCCACCGAGAUCGGAAGAGCACACGU
B2: target 1 A18C,C21A (mixed)
RNA 1: B1 RNA 1
RNA 2: B1 RNA 2 with C31A, A34C, A40G, C49U
B3: target 1 insC 3' of 22,insA 3' of 21 (mixed)
RNA 1: B1 RNA 1
RNA 2: GGGAAUGGAUCCACAUCUACGAAUUCGUACCCAAUAGAGAGGUUAUCCGCUCACCGAGAUCGGAAGAGCACACGU
B4: target 1 C2A,G15U (mixed)
RNA 1: B1 RNA 1
RNA 2: B1 RNA 2 with G37U, A40G, C49U, C50A
B5: target 1 insC 3' of 19,insG 3' of 6 (mixed)
RNA 1: B1 RNA 1
RNA 2: GGGAAUGGAUCCACAUCUACGAAUUCGUACCAUCAGAGAGGUUAUCCGGCUCACCGAGAUCGGAAGAGCACACGU
B6: target 1 insA 3' of 12,insU 3' of 6 (mixed)
RNA 1: B1 RNA 1
RNA 2: B5 RNA 2 with C34A, A35G, G36A, A37G, G38A, A39G, G41A, G48U
B7: target 1 insA 3' of 21,insA 3' of 10 (mixed)
RNA 1: B1 RNA 1
RNA 2: B5 RNA 2 with U33A, C34U, U45A, C46U, G48C
B8: target 1 G12C,C21A (mixed)
RNA 1: B1 RNA 1
RNA 2: B1 RNA 2 with C31A, A40C, C49U
B9: target 1 A1G,C6U (mixed)
RNA 1: B1 RNA 1
RNA 2: B1 RNA 2 with A40G, C46U, C49U, A51G
B10: target 1 U8C,A18C (mixed)
RNA 1: B1 RNA 1
RNA 2: B1 RNA 2 with A34C, A40G, U44C, C49U
B11: target 1 U3A,A16G (mixed)
RNA 1: B1 RNA 1
RNA 2: B1 RNA 2 with A36G, A40G, C49A
B12: target 1 insU 3' of 17,insC 3' of 17 (mixed)
RNA 1: B1 RNA 1
RNA 2: B3 RNA 2 with C32A, A33U, U35G, A36U, G37C
B13: target 1 insC 3' of 22,insU 3' of 7 (mixed)
RNA 1: B1 RNA 1
RNA 2: B5 RNA 2 with A32C, U33A, C34U, C47U, G48C
B14: target 1 insC 3' of 19,insG 3' of 2 (mixed)
RNA 1: B1 RNA 1
RNA 2: B5 RNA 2 with G49C, C50U, U51C, C52G
B15: target 1 insA 3' of 22,insG 3' of 18 (mixed)
RNA 1: B1 RNA 1
RNA 2: B3 RNA 2 with C31A, A34U, U35A, A36G
B16: target 1 G15A,A18U (mixed)
RNA 1: B1 RNA 1
RNA 2: B1 RNA 2 with A34U, G37A, A40G, C49U
B17: target 1 A1U,C22A (mixed)
RNA 1: B1 RNA 1
RNA 2: B1 RNA 2 with C30A, A40G, C49U, A51U
B18: target 1 A16U,C21U (mixed)
RNA 1: B1 RNA 1
RNA 2: B1 RNA 2 with C31U, A36U, A40G, C49U
B19: target 1 insU 3' of 20,insG 3' of 3 (mixed)
RNA 1: B1 RNA 1
RNA 2: B5 RNA 2 with C34U, G49C, C50U, U51G
B20: target 1 C6A,G15A (mixed)
RNA 1: B1 RNA 1
RNA 2: B1 RNA 2 with G37A, A40G, C46A, C49U
B21: target 1 insU 3' of 22,insA 3' of 8 (mixed)
RNA 1: B1 RNA 1
RNA 2: B5 RNA 2 with C31U, A32C, U33A, C34U, C46A, G48C
B22: target 1 A1G,A16C (mixed)
RNA 1: B1 RNA 1
RNA 2: B1 RNA 2 with A36C, A40G, C49U, A51G
B23: target 1 insU 3' of 17,insU 3' of 9 (mixed)
RNA 1: B1 RNA 1
RNA 2: B5 RNA 2 with C34A, A35G, G36U, C46U, G48C
B24: target 1 C2U,C6U (mixed)
RNA 1: B1 RNA 1
RNA 2: B1 RNA 2 with A40G, C46U, C49U, C50U
B25: target 1 insA 3' of 19,insC 3' of 5 (mixed)
RNA 1: B1 RNA 1
RNA 2: B5 RNA 2 with C34A, G49C
B26: target 1 insG 3' of 22,insG 3' of 1 (mixed)
RNA 1: B1 RNA 1
RNA 2: B5 RNA 2 with C31G, A32C, U33A, C34U, G49C, C50U, U51C, C52A, A53G
B27: target 1 insC 3' of 15,insU 3' of 14 (mixed)
RNA 1: B1 RNA 1
RNA 2: B3 RNA 2 with C32A, A33U, U35G, A38C, G39A, A40U
B28: target 1 A1C,C6U (mixed)
RNA 1: B1 RNA 1
RNA 2: B1 RNA 2 with A40G, C46U, C49U, A51C
B29: target 1 C7A,U19C (mixed)
RNA 1: B1 RNA 1
RNA 2: B1 RNA 2 with U33C, A40G, C45A, C49U
B30: target 1 G12U,U19A (mixed)
RNA 1: B1 RNA 1
RNA 2: B1 RNA 2 with U33A, A40U, C49U
B31: target 1 insA 3' of 12,insG 3' of 9 (mixed)
RNA 1: B1 RNA 1
RNA 2: B3 RNA 2 with C32A, A33U, U35G, A40G, G41A, G42U, U44A, A45G
B32: target 1 insU 3' of 15,insC 3' of 3 (mixed)
RNA 1: B1 RNA 1
RNA 2: B5 RNA 2 with C34A, A35G, G36A, A37G, G38U, G49C, C50U, U51C
B33: target 1 U10G,A16G (mixed)
RNA 1: B1 RNA 1
RNA 2: B1 RNA 2 with A36G, A40G, U42G, C49U
B34: target 1 complement block 4-6 (mixed)
RNA 1: B1 RNA 1
RNA 2: B1 RNA 2 with A40G, C46G, G47C, C48G, C49U
B35: target 1 A16C (mixed)
RNA 1: B1 RNA 1
RNA 2: B1 RNA 2 with A36C, A40G, C49U

Target: T1, EsCas13d, nuclease-dead
Assay: crRNA (strand 1, pre-loaded); Mg2+; 40 mM Tris-HCl pH 7.5, 150 mM NaCl, 6 mM MgCl2, 1 mM DTT, 0.1% Tween-20, 0.2 mg/ml BSA; 25 C; 10 min per concentration, then washed
Details: tags: His6-TwinStrep-SUMO cleaved; N-terminal SNAP kept (SNAP-Surface 488); label: 3' end held by stalled T7 RNA polymerase

| Binder | Kd [nM] |
| --- | --- |
| B1 | 11.1 ± 1.1 |
| B2 | 88 ± 23 |
| B3 | 20.7 ± 2.3 |
| B4 | 29 ± 5 |
| B5 | 32 ± 4 |
| B6 | 64 ± 14 |
| B7 | 28.2 ± 2.4 |
| B8 | 58 ± 11 |
| B9 | 8.9 ± 0.7 |
| B10 | 89 ± 9 |
| B11 | 34.3 ± 2.9 |
| B12 | 36 ± 5 |
| B13 | 47 ± 8 |
| B14 | 33 ± 5 |
| B15 | 59 ± 13 |
| B16 | 58 ± 11 |
| B17 | 12.1 ± 0.9 |
| B18 | 11.7 ± 1.4 |

| Binder | Kd [nM] |
| --- | --- |
| B19 | 9.4 ± 0.6 |
| B20 | 11.9 ± 0.5 |
| B21 | 58 ± 5 |
| B22 | 36 ± 4 |
| B23 | 40 ± 8 |
| B24 | 8.3 ± 0.6 |
| B25 | 48 ± 8 |
| B26 | 26.6 ± 2.1 |
| B27 | 28.5 ± 2.3 |
| B28 | 9.2 ± 0.9 |
| B29 | 33.2 ± 3.5 |
| B30 | 52 ± 10 |
| B31 | 46.9 ± 3.5 |
| B32 | 11.6 ± 1.1 |
| B33 | 42.2 ± 3.5 |
| B34 | 4.95 ± 0.15 |
| B35 | 31 ± 2.7 |
